B1: A-kinase anchor protein 3 (Homo sapiens), O75969 (parent)
chain: MSEKVDWLQSQNGVCKVDVYSPGDNQAQDWKMDTSTDPVRVLSWLRRDLEKSTAEFQDVRFKPGESFGGETSNSGDPHKGFSVDYYNTTTKGTPERLHFEMTHKEIPCQGPRAQLGNGSSVDEVSFYANRLTNLVIAMARKEINEKIDGSENKCVYQSLYMGNEPTPTKSLSKIASELVNETVSACSRNAAPDKAPGSGDRVSGSSQSPPNLKYKSTLKIKESTKERQGPDDKPPSKKSFFYKEVFESRNGDYAREGGRFFPRERKRFRGQERPDDFTASVSEGIMTYANSVVSDMMVSIMKTLKIQVKDTTIATILLKKVLLKHAKEVVSDLIDSFLRNLHSVTGTLMTDTQFVSAVKRTVFSHGSQKATDIMDAMLRKLYNVMFAKKVPEHVRKAQDKAESYSLISMKGMGDPKNRNVNFAMKSETKLREKMYSEPKSEEETCAKTLGEHIIKEGLTLWHKTQQKECKSLGFQHAAFEAPNTQRKPASDISFEYPEDIGNLSLPPYPPEKPENFMYDSDSWAEDLIVSALLLIQYHLAQGGRRDARSFVEAAGTTNFPANEPPVAPDESCLKSAPIVGDQEQAEKKDLRSVFFNFIRNLLSETIFKRDQSPEPKVPEQPVKEDRKLCERPLASSPPRLYEDDETPGALSGLTKMAVSQIDGHMSGQMVEHLMNSVMKLCVIIAKSCDASLAELGDDKSGDASRLTSAFPDSLYECLPAKGTGSAEAVLQNAYQAIHNEMRGTSGQPPEGCAAPTVIVSNHNLTDTVQNKQLQAVLQWVAASELNVPILYFAGDDEGIQEKLLQLSAAAVDKGCSVGEVLQSVLRYEKERQLNEAVGNVTPLQLLDWLMVNL
B2: Ropporin-1B (Homo sapiens), Q9BZX4 (parent)
chain: MAQTDKPTCIPPELPKMLKEFAKAAIRAQPQDLIQWGADYFEALSRGETPPVRERSERVALCNWAELTPELLKILHSQVAGRLIIRAEELAQMWKVVNLPTDLFNSVMNVGRFTEEIEWLKFLALACSALGVTITKTLKIVCEVLSCDHNGGLPRIPFSTFQFLYTYIAEVDGEICASHVSRMLNYIEQEVIGPDGLITVNDFTQNPRVWLE

Variants of: B1
Conditions: with rop1b_human ROPN1B, Q9BZX4

effect of a mutation on the interaction | Variant
decreasing interaction | L131P

Variants of: B1
Conditions: with kap2_human PRKAR2A

effect of a mutation on the interaction | Variant
decreasing interaction | L131P

Variants of: B2
Conditions: with akap3_human AKAP3, O75969

effect of a mutation on the interaction | Variant
decreasing interaction | L18A
